Reference: the supplement of paper PMC9170038

tested on: K4 kissing-loop RNA reporter; assay: apparent KD of K4 kissing-loop reporter; higher = weaker reporter binding; conditions: Eterna round: R107; input ligand: FMN 200 uM
Description: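 RNA-MaP round R107: designed RNA switches with theophylline, tryptophan, arginine or FMN aptamers are transcribed on-chip within common flanks. They are titrated with a labelled K4 kissing-loop RNA reporter in RNA-MaP buffer (100 mM Tris pH 7.5, 80 mM KCl, 4 mM MgCl2), without ligand or with the indicated ligand. Median apparent KD per design.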
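Also: bound reporter read as fluorescence of individual clusters on recovered sequencing chips by microscopy, with normalized cluster intensities fitted with a binding model.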

| Sequence | apparent KD of K4 kissing-loop reporter |
| --- | --- |
| AGACUACUGAUAGGAUAUAACAUACUACUCGUAUACCGAAAGGUAUACGAGACCCUUCUAGUGAUGUUAGAAGGGUCGGUAGUCA [Omei KL FMN B Exc B v8] | 87.5 nM |
| GAAUGAAAUAUCUGGCCCUAUCAGAAUUGGAAGGAUAUGACGGUCAUCAGAAGGUCCAACUCGUAGUGAUGUUGCGGGUUUUAAA [theeternabot_exclusion_KL_FMN_A_21] | 91.2 nM |
| UGGAUAUAGUGAUGUUAUAUAGAGAUGGAUACCAGUUAAGAGAAUAGCCCUUGGCAGCCGAAAGAAGUAUCAUUAGAGAAGAAUG [ExTheophyl.Ad] | 261 nM |
| AGGCGCUUAAGUCAGUGAUGUUGAUUAUAUCGAGGACCGGUACGGCCGCCACUCGGCUUUCAUCCGCCAUCGUAGUCCUAAAACC [theeternabot_sameState_KL_Trp_A_25] | 498 nM |
| UGAACUUUUGCUAGGAACCGUCUAGCUCUUUAGGAUAUCUGGAAACAGAGAAGGAAAGACCUACAGAGUGAUGUUCUGCGUUCAU | 383 nM |
| AGAGUUAAUUAGUCUUUUUUUACAUUAAGUCAGGAUAUCGUAUAUUCGAGAAGGGACACAUGCUAGUGAUGUUAGCUAUUUCUCA [JR_Nu_ExcFMNA_Sub019] | 39.7 nM |
| AGAUCUAAGCUGAGUUAGUCACCAUAAAGCAAGGAUAUUCCACGAAGAAGAAGGUGCAUCAUCCAUAGUGAUGUUAUGGCACGGG [theeternabot_sameState_KL_FMN_A_7] | 687 nM |
| GCCGUAGAUGGAAGGAGCGUGUCAAAGUGAUGUUUUGAUUAACUCCCUACGGGAUAGAUGACACAGGUAGGUCGCCAUCUACGGC | 65.2 nM |
| GCCGUAGAUUGAAGGAGCGGCACCCACGGCUCUAACACCUAAGUGAUGUUUAGGUAGUGGUGCCAGGUAGGUCGCAAUCUACGGC | 144 nM |
| GUGUGACUAGUGAUGUUGGUUGCGUGGGAAGGAGCGCAGUAAAAUGCAGGUAGGUCGCCCGUAUCUCUGAUAAAAGAUUAAUUCA [KL-SSArg-A10] | 181 nM |
| GCACUGAAGUGAUGUUUUUGUGCACGUUGAAAGGAUAUCUGCUUGUAGAGAAGGUUCUGUUUGUGCGGAGCGGGCGUUACCGGCA [theeternabot_exclusion_KL_FMN_A_32] | 307 nM |
| UUCGAUCAGUGAUGUUGAUCAUCAGUCGAAGGAGCGCUAGAGAUAGCAGGUAGGUCGCGACUGCAAGGUGUGAGAACACCUCGAA [Arg A SS t9a] | 457 nM |
| CAAAUAUGCGGUAGGUUCAAGCGCUGGGAAGGAGCGCAGAUGACUGCAGGUAGGUCGCCCAGUGAUGUUGGGCUUUCCACCUAUU [Edbeaan] | 123 nM |
| AAGGUUGUGCAUGGGAGUGAUGUUCCCACGCAGGAUAUCGCUCACGCGAGAAGGGCGAGCACAACCGCUCAAGAAACUUGAGCAA [Omei KL FMN A SS C v2] | 133 nM |
| CGUAGUUGGGCGGCCGCCACUUGAACAGCUUUGCCAAAGGCAGAGCUCUAGAGUGAUGUUCUGGCAAGGACCGGGUCCAACUACA [#02 K4 Tryptophan B Same State] | 1270 nM |
| AGAUGACACCGAGGAUAUCCUAAUAUGGGUGAUGUUAGCGAUGUUGAAGGUGUAGUGAUGUUAUGCGGAGAAGGCGGUGUUGUUU [BDazzled - #21 - Exc. FMN B] | 104 nM |
| CGCAAGCAGCCAGUGAUGUUGGCCGCCUUGCGAGGACCGGUACGGCCGCCACUCGAAGGCGGCUAGUAGUAGUCUGUCUAACGGA [KL-XTryp-A16] | 104 nM |
| AAUAAGCGCGGAAGGAGCGCCGCCAGUGAUGUUGGGAGUUAGAUACCAGUGAUGUUGGGCCGGCAGGUAGGUCGCCGCAAAGCUU [Exclusion Arginine B Gf 14] | 208 nM |
| AUUCUGUUUUUGAUGUUUUUUGUAUAAUGGCAGGAUAUCGUAGAAGCGAGAAGGGCUUUUAUGCGUUAUGAGUGAUGUUUGUAGG [ttytewvmullin] | 298 nM |
| CCCGGUCCACGAAGGAGCGCCGUGCAGUGAUGUUGCAGUUAGAUCCAGUGAUGUUUGGGCCGGCAGGUAGGUCGCGUGGCCCGGG [Excusion Arginine B GF 24] | 199 nM |
| GGUAGCAUGGCGGCCGCCACUGUUCGUGUUGCUAGCAGAUUCCAGUGAUGUUGGAAGCCUAGGUACAGGACCGGGCCAUGCUACC | 105 nM |
| CCGCUGCCCUCAGGAUAUUAAGUAUUAGUGAUGUUAGUAAACCGAUGGCGAAAGCCAUCGGUAUGUUGAGAAGGGAGGGUAGCGG [whbob_SS_FMNB__2th199] | 370 nM |

| Sequence | apparent KD of K4 kissing-loop reporter |
| --- | --- |
| AGUGAUGUGGGAAGGAGCGGUAGAUGAGUUCAGUGAUGUUGAAGUGAUGCUGUAGUGAUGUGCCAGGUAGGUCGCCUAGAUGUUA [KL-XARG B24] | 353 nM |
| CUUGUACAAGUGAUGUUUGUUAUAUCCGAAGGAGCGUCGUAAUAGACAGGUAGGUCGCGGAGUAAGAUAGUUUUUUUAAUAUCAU [JR_Nu_SSArginiA_Sub029] | 435 nM |
| UAGUGUCGCGCAGGAUAUACUGAUUGGAGUGAUGUUCCAAACAUGAACGUGAGACUUUUACAAGAAGUAGAAGGGCGUGAGACAU [Exclusion FMN B GF 21] | 276 nM |
| CGGAUGUAGUGAUGUUAUAUAAGAUGUAGACGAGGACCGGUACGGCCGCCACUCGAAACGGCUACUAGCGCGUUGCGAGGUGUGC [ExTryptoA.CI] | 952 nM |
| GUUACGCAUGGAAGGAGCGCAGGCUCAACAAAUAGCUCAGUGAUGUUGAGCAUAUUAAAACUGCAGGUAGGUCGCCAUGUGUAAC [Ex Arginine B K4 23] | 651 nM |
| AAAUGCAGCAAACGAGUGAUGUUCGACGAUACCAGCCUCGAUAGAGGCCCUUGGCAGCGUACAUCAAAGCCAAGGGCUGCUAAAA [#SwitchBubble 3] | 483 nM |
| UUAUAUCUCUGACUUUCACUUUGCGUAUCUGAGGAUAUCUGAAUUCAGAGAAGGCAGUGAUGUUGCUUUGCUGUGUGUCUGAGAA [AK2 Exc FMN A] | 702 nM |
| UCCUCGAAUCGACCUCGAAAGAGGAUGGAUACCAGUCUUGAUAAAGACCCUUGGCAGCCAGUGAUGUUGGAACGAGGUAAAUAAA [#SwitchBubble 19 #K4Late] | 531 nM |
| GUCUAGCUAGCAGGAUAUAGCUGGUAGUGAUGUUACCACUAGAACUCUGCGGAAACGCAGAGUAUCCUAGAAGGGCUAGCUAGAC | 95 nM |
| UUUGGAAGCGGUGUUGAUUAGGGAGCGGAAGGAGCGCCGAUUAUGGCAGGUAGGUCGCCGGAAUGUAGUGAUGUUGCAUAGAGGU [ExArgA.X] | 185 nM |
| GGAGGGAUCUCGGCCGCCACUCAUAAGAAAUGAACCUCAGAAAUAUAGUGAUGUUAUAUAAAGAAGAGGACCGGGAGAAAGGAGG [ExTryptoB.B] | 167 nM |
| UGACUGGACUGAAGGAGCGGGAAACUCCUAGUGAUGUUAGGAAUACGAGACAAAGUCUCGACCCAGGUAGGUCGCAGUCUAGUCU [ArgBS 17 #SwitchBubble #StaticStem] | 121 nM |
| AGAGUUGACGAAAAGUCAACUCUACGAGAAGGAGCGCACGAAAGUGCAGGUAGGUCGCUCAGUCCAGUGAUGUUGGAACAUAAAA [#OpenEnded 8] | 59.7 nM |
| ACCUACCAUUAGUGAUGUUAAUGGACGGAAGGAGCGCGGAUAUCCGCAGGUAGGUCGCCGAAGGCUAGACAUUGUCUAGCCAUUA [AK1.2 SS Arginine A] | 225 nM |
| UGAUACCAGACUGAUACCAGCCACAGAGUCAAAGACUCUGAUAAAGGAACCAGUGAUGUUGGCCCUUGGCAGCAGUCUGGUAUCU [TheoBX 24 #SwitchBubble #StaticStem] | 131 nM |
| CUCGUGGGUUUGAGAGGGCUUGUGGGAAGUGAGGAUAUUUAGGGAGAAAGAAGGCACUAUAGAAUAUAGUGAUGUUAUAUAAGGG [SSFMNA.N] | 314 nM |
| AUUAAUUUCAGAGGAUAUCGUUAUUUUUUAUAGUAUAUUCAAUUAUGCAGUGAUGUUGCUAUUAAUCGAGAAGGCUGAUUUAUAA [JR_ExcFMNB_Sub002] | 179 nM |
| AGACUACCACACUGUCAAUAGACAGUGUACUAGGAUAUGCUGAUAAGCAGAAGGAGUGAUGUUCCUUGGUAGUCAAUAAAAUAAU [FmnAX 13 U28+U67] | 357 nM |
| GUUGCAGCCCGUGAUACCAGCAUCGGUCGCCGGGUCCAGUGAUGUUGGGCUUGCGUUCUAUGCCCUUGGCAGCGCGGCCUGACAG [Qulaanar] | 415 nM |
| UGAUAAAGCAGUGAUGUUGCAAGAAAUGAUACCAGUUAAGAAGAGAACCCUUGGCAGCAUAAAGUGCGCUCUAAUGAGUGUGCUU [whbob_SS_Theo_A_w50] | 88.8 nM |
| CCAUCGCUAUUCGAUACCAGUCAUAAAAUCUUUGGUUAAAUAAAGGAGUGAUGUUCCAAAGACCCUUGGCAGCGAAUAGUGAUGG [Theophylline B K4 6] | 670 nM |
| GUGCAGUGAUGUUGCACGAGGAAAGACGAUACCAGCCGCAAAUGUGGCCCUUGGCAGCGUGGGCUAGCACAAAAUAUGCUAGUCU [Ricegeusat] | 131 nM |

same assay, conditions: Eterna round: R107; input ligand: arginine 13.2 mM

| Sequence | apparent KD of K4 kissing-loop reporter |
| --- | --- |
| AGACUACUGAUAGGAUAUAACAUACUACUCGUAUACCGAAAGGUAUACGAGACCCUUCUAGUGAUGUUAGAAGGGUCGGUAGUCA [Omei KL FMN B Exc B v8] | 70.1 nM |
| GAAUGAAAUAUCUGGCCCUAUCAGAAUUGGAAGGAUAUGACGGUCAUCAGAAGGUCCAACUCGUAGUGAUGUUGCGGGUUUUAAA [theeternabot_exclusion_KL_FMN_A_21] | 46.3 nM |
| UGGAUAUAGUGAUGUUAUAUAGAGAUGGAUACCAGUUAAGAGAAUAGCCCUUGGCAGCCGAAAGAAGUAUCAUUAGAGAAGAAUG [ExTheophyl.Ad] | 183 nM |
| AGGCGCUUAAGUCAGUGAUGUUGAUUAUAUCGAGGACCGGUACGGCCGCCACUCGGCUUUCAUCCGCCAUCGUAGUCCUAAAACC [theeternabot_sameState_KL_Trp_A_25] | 490 nM |
| UGAACUUUUGCUAGGAACCGUCUAGCUCUUUAGGAUAUCUGGAAACAGAGAAGGAAAGACCUACAGAGUGAUGUUCUGCGUUCAU | 268 nM |
| AGAGUUAAUUAGUCUUUUUUUACAUUAAGUCAGGAUAUCGUAUAUUCGAGAAGGGACACAUGCUAGUGAUGUUAGCUAUUUCUCA [JR_Nu_ExcFMNA_Sub019] | 79.6 nM |
| AGAUCUAAGCUGAGUUAGUCACCAUAAAGCAAGGAUAUUCCACGAAGAAGAAGGUGCAUCAUCCAUAGUGAUGUUAUGGCACGGG [theeternabot_sameState_KL_FMN_A_7] | 548 nM |
| GCCGUAGAUGGAAGGAGCGUGUCAAAGUGAUGUUUUGAUUAACUCCCUACGGGAUAGAUGACACAGGUAGGUCGCCAUCUACGGC | 79.3 nM |
| GCCGUAGAUUGAAGGAGCGGCACCCACGGCUCUAACACCUAAGUGAUGUUUAGGUAGUGGUGCCAGGUAGGUCGCAAUCUACGGC | 153 nM |
| GUGUGACUAGUGAUGUUGGUUGCGUGGGAAGGAGCGCAGUAAAAUGCAGGUAGGUCGCCCGUAUCUCUGAUAAAAGAUUAAUUCA [KL-SSArg-A10] | 128 nM |
| GCACUGAAGUGAUGUUUUUGUGCACGUUGAAAGGAUAUCUGCUUGUAGAGAAGGUUCUGUUUGUGCGGAGCGGGCGUUACCGGCA [theeternabot_exclusion_KL_FMN_A_32] | 269 nM |
